These results are taken from paper PMC8069203, “Highly Sensitive Electrochemical Aptasensor for Detecting the VEGF165 Tumor Marker with PANI/CNT Nanocomposites”.

The target in this data set is VEGF165 (UniProt P15692-4 27-191). In words: electrochemical aptasensor; PANI/CNT electrode; linear 0.5 pg/mL to 1 ug/mL, LOD 0.4 pg/mL (not a Kd); PBS rinsing, ferri/ferrocyanide redox probe; aptamer immobilized on PANI/CNT screen-printed carbon electrode; pH, salt and temperature not given in the material. The settings on record: protein: commercial; chain copies: 2.
Sequence of VEGF165 (P15692 other isoform, or with tags, fused parts or gaps): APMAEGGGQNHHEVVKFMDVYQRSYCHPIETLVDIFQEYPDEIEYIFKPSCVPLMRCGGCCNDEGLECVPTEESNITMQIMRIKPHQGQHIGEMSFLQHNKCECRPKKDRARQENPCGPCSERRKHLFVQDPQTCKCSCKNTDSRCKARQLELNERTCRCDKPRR

Regarding AUGCAGUUUGAGAAGUCGCGCAU (structured_RNA, 5'-NH2, coupled by amide bond to PANI/CNT carboxyl groups (DMT-MM)) [anti-VEGF165 RNA aptamer], the binding result is recorded as “binds”.
